US11653679B2, “High-purity steviol glycosides” (PureCircle Sdn Bhd, priority 2014, dated 2023)
Substitutions are numbered along the chain they refer to.

What was measured:
[1] = Sweetness of reb M compared to a 10% sucrose solution
Excerpt: The high purity reb M obtained in this invention, having a molecular weight of 1291.29, a molecular formula of C56H90O33, CAS registry number 1220616-44-3, and the structure presented in FIG. 1, is in the form of a white and odorless powder. The compound is about 200 times sweeter than sugar when compared to a 10% sucrose solution.

[2] = Solubility of reb M in water and solvents; format: physicochemical
Method: Other properties of the pure reb M compound include a melting point of 249-250° C., and a specific rotation of [α]D^25−19.0° in 50% ethanol (C=1.0). The solubility of reb Min water is around 0.3%, and increases with an increase in temperature.
Reb M is soluble in diluted solutions of methanol, ethanol, n-propanol, and isopropanol. However, it is insoluble in acetone, benzene, chloroform, and ether.

[3] = Heat and pH stability of reb M; format: physicochemical
[4] = Directed evolution of UGT76G1, Rebaudioside D to Rebaudioside M, round 1 (Example 26); format: biochemical; details: 100 μL fresh lysate, 0.5 mM Rebaudioside D, 30° C., pH 7.2
Outline: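 Conversion and initial rate were determined by HPLC with CAD detection on samples taken at 2, 4, 7 and 24 h. Reactions ran at 30 °C in 50 mM phosphate buffer pH 7.2 with lysate, Rebaudioside D (0.5 mM), UDP-glucose (2.5 mM) and MgCl2 (3 mM).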

[5] = Directed evolution of UGT76G1, Rebaudioside D to Rebaudioside X, round 2 (Example 41); format: biochemical; details: baseline clone Round1-Var94 defined as 100%, 100 μL lysate, 0.5 mM Rebaudioside D, 30° C., pH 7.2
Method: Lysis was performed by addition of Bugbuster® Master mix (Novagen®) to the thawed cells and the lysate was recovered by centrifugation. Activity tests were performed with 100 μL of fresh lysate that was added to a solution of Rebaudioside D (final concentration 0.5 mM), MgCl2 (final concentration 3 mM) and UDP-Glucose (final concentration 2.5 mM) in 50 mM phosphate buffer pH 7.2.
The reaction was allowed to run at 30° C. and samples were taken after 2, 4, 7 and 24 h. to determine conversion and initial rate by HPLC (CAD detection) using the analytical method that was described above for the transformation of Rebaudioside D to Rebaudioside X. In parallel the experiments were performed with baseline clone, Round1-Var94. The conversion after 22 h. and initial rate for this baseline clone was defined as 100% and the normalized conversions and initial rates for the round 2 clones are depicted in the following table: […]

[6] = Activity of UGT76G1_Sc for conversion of Rebaudioside D to Rebaudioside M (Example 35); format: biochemical; details: 21 h., based on initial concentration of Rebaudioside D
Method: UGT76G1_Sc was prepared according to EXAMPLE 34. Activity tests were performed at 2 mL scale with 200 μL of lysate for the transformation of Rebaudioside D using 0.5 mM of substrate, 2.5 mM of UDP-Glucose and 3 mM MgCl2 in 50 mM Sodium Phosphate buffer at pH 7.2. Samples were taken and analyzed by HPLC. The corresponding chromatogram is depicted in FIG. 64.

[7] = Catalytic reaction Rebaudioside A to Rebaudioside D with in-vitro produced UGT91D2 (Example 5); format: biochemical; details: after 120 h, in-vitro produced UGT91D2, 0.1 mM Rebaudioside A, 30° C.
Method: The total volume of the reaction was 0.5 mL with the following composition: 50 mM sodium phosphate buffer pH 7.2, 3 mM MgCl2, 3.8 mM UDP-glucose, 0.1 mM Rebaudioside A and 180 μL of in-vitro produced UGT91D2. The reactions were run at 30° C. on an orbitary shaker at 135 rpm. For each sample, 450 μl of reaction mixture was quenched with 45 μL of 2N H2SO4 and 405 μL of 60% MeOH. After centrifugation, the supernatant was analyzed by HPLC (CAD). HPLC indicated a 4.7% conversion of rebaudioside A to rebaudioside D after 120 h.

[8] = Transformation of Rubusoside to Stevioside with in-vivo preparations of UGT91D2 (Example 19); format: biochemical; details: per mL of lysate; 1 U transforms 1 μmol of substrate in 1 hour at 30° C. and pH 7.2
Method: Activity tests were performed at 5 mL scale with 1000 μL of lysate for the transformation of Rubusoside to Stevioside using 0.5 mM of substrate, 2.5 mM of UDP-Glucose and 3 mM MgCl2 in 50 mM Sodium Phosphate buffer at pH 7.2. Samples were taken and analyzed by HPLC.

## C=C1C[C@@]23CC[C@H]4[C@@](C)(CCC[C@@]4(C)C(=O)O[C@@H]4O[C@H](CO)[C@@H](O)[C@H](O[C@@H]5O[C@H](CO)[C@@H](O)[C@H](O)[C@H]5O)[C@H]4O[C@@H]4O[C@H](CO)[C@@H](O)[C@H](O)[C@H]4O)[C@@H]2CC[C@]1(O[C@@H]1O[C@H](CO)[C@@H](O)[C@H](O[C@@H]2O[C@H](CO)[C@@H](O)[C@H](O)[C@H]2O)[C@H]1O[C@@H]1O[C@H](CO)[C@@H](O)[C@H](O)[C@H]1O)C3 [reb M, Rebaudioside M]
[1]
  sweetness relative to sugar: about 200 times sweeter than sugar
[2]
  solubility in acetone, benzene, chloroform, and ether: insoluble
  solubility in diluted solutions of methanol, ethanol, n-propanol, and isopropanol: soluble
[2]; increases with an increase in temperature
  solubility in water: around 0.3%
[3]
  heat and pH stability: heat and pH-stable

B1: UGT76G1var94: UGT76G1 variant, mutations Q266E_P272A_R334K_G348P_L379G (protein, UniProt Q6VAB4 1-458, looked up, variant Q266E P272A R334K G348P L379G)
UDP-glycosyltransferase 76G1: MENKTETTVRRRRRIILFPVPFQGHINPILQLANVLYSKGFSITIFHTNFNKPKTSNYPHFTFRFILDNDPQDERISNLPTHGPLAGMRIPIINEHGADELRRELELLMLASEEDEEVSCLITDALWYFAQSVADSLNLRRLVLMTSSLFNFHAHVSLPQFDELGYLDPDDKTRLEEQASGFPMLKVKDIKSAYSNWQILKEILGKMIKQTKASSGVIWNSFKELEESELETVIREIPAPSFLIPLPKHLTASSSSLLDHDRTVFEWLDQQAPSSVLYVSFGSTSEVDEKDFLEIARGLVDSKQSFLWVVRPGFVKGSTWVEPLPDGFLGERGKIVKWVPQQEVLAHPAIGAFWTHSGWNSTLESVCEGVPMIFSDFGGDQPLNARYMSDVLKVGVYLENGWERGEIANAIRRVMVDEEGEYIRQNARVLKQKADVSLMKGGSSYESLESLVSYISSL
[4]
  conversion Reb D to Reb M after 24 h: 72.0%
  initial rate: 7.9E+07 Reb M area/min
[5]
  Normalized conversion Reb D to Reb X after 22 h.: 100%
  Normalized initial rate (0-4 h): 100%

B2: UGT76G1_Sc: UGT76G1 produced in S. cerevisiae, lysate (protein, UniProt Q6VAB4 1-458, looked up)
UDP-glycosyltransferase 76G1: B1 UDP-glycosyltransferase 76G1 with E266Q, A272P, K334R, P348G, G379L
modifications: S. cerevisiae lysate
[6]; 200 μL lysate, 0.5 mM substrate, 2.5 mM UDP-Glucose, pH 7.2
  Rebaudioside D conv. (reaction time): 85% (21 h.)
[6]
  Rebaudioside M selectivity: 100%

B3: UGT91D2: UDP-glucosyltransferase, Genbank accession no. ACE87855.1 (protein, UniProt B3VI56 1-473, looked up)
UDP-glycosyltransferase 91D2: MATSDSIVDDRKQLHVATFPWLAFGHILPYLQLSKLIAEKGHKVSFLSTTRNIQRLSSHISPLINVVQLTLPRVQELPEDAEATTDVHPEDIPYLKKASDGLQPEVTRFLEQHSPDWIIYDYTHYWLPSIAASLGISRAHFSVTTPWAIAYMGPSADAMINGSDGRTTVEDLTTPPKWFPFPTKVCWRKHDLARLVPYKAPGISDGYRMGLVLKGSDCLLSKCYHEFGTQWLPLLETLHQVPVVPVGLLPPEVPGDEKDETWVSIKKWLDGKQKGSVVYVALGSEVLVSQTEVVELALGLELSGLPFVWAYRKPKGPAKSDSVELPDGFVERTRDRGLVWTSWAPQLRILSHESVCGFLTHCGSGSIVEGLMFGHPLIMLPIFGDQPLNARLLEDKQVGIEIPRNEEDGCLTKESVARSLRSVVVEKEGEIYKANARELSKIYNDTKVEKEYVSQFVDYLEKNTRAVAIDHES
[7]
  conversion of rebaudioside A to rebaudioside D: 4.7%

B4: Example 18: UGT91D2 lysate using pET30a+ plasmid and ArcticExpress expression strain (protein, UniProt B3VI56 1-473, looked up)
UDP-glycosyltransferase 91D2: B3 UDP-glycosyltransferase 91D2
modifications: E. coli lysate
notes: UGT91D2 lysate using pET30a+ plasmid and ArcticExpress expression strain
[8]
  Transformation activity Rubusoside to Stevioside: 21 mU mL^−1

B5: Example 15: UGT91D2 lysate using pMAL plasmid and BL21 expression strain (protein, UniProt B3VI56 1-473, looked up)
UDP-glycosyltransferase 91D2: B3 UDP-glycosyltransferase 91D2
modifications: MBP fusion from pMAL, E. coli lysate
notes: UGT91D2 lysate using pMAL plasmid and BL21 expression strain
[8]
  Transformation activity Rubusoside to Stevioside: 9 mU mL^−1

B6: Example 17: UGT91D2 lysate using pET30a+ plasmid and Tuner (DE3) expression strain (protein, UniProt B3VI56 1-473, looked up)
UDP-glycosyltransferase 91D2: B3 UDP-glycosyltransferase 91D2
modifications: E. coli lysate
notes: UGT91D2 lysate using pET30a+ plasmid and Tuner (DE3) expression strain
[8]
  Transformation activity Rubusoside to Stevioside: 28 mU mL^−1
